Starred links: 1 amine or outer side, 2 acyl side, 3 side chain; linkers in the order of their positions; H or OH if unused. Non-standard residues stand in square brackets, D forms with d. Groups on a side chain read outwards from the residue. No end group written: not given here. *: point of attachment. G2E3 = linker of 2 Gly and 3 Glu (read GGEEE); C15 diacid = O=C(O)CCCCCCCCCCCCCC(=O)*; γGlu = O=C(O)[C@H](CCC(=O)[*:2])N[*:1]; NMeY = CN[C@@H](Cc1ccc(O)cc1)C(=O)O; AEEA = NCCOCCOCC(=O)O; Aib = CC(C)(N)C(=O)O
T1: full-length human GIPR with an N-terminal FLAG tag (human, UniProt P48546 22-466)
T1 sequence (looked up): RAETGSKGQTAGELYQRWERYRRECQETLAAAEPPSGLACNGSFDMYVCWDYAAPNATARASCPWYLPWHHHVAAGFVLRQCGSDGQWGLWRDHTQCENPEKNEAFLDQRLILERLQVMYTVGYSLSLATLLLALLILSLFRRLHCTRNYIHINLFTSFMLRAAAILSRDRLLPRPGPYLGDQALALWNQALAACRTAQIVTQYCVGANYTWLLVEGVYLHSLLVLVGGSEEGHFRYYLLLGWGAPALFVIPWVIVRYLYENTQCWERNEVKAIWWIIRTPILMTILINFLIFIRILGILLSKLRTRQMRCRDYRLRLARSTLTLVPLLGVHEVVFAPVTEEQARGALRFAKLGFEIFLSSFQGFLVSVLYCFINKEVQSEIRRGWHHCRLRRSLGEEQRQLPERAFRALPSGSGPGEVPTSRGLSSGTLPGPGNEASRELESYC


Assays:
[1] = target: T1, full-length human GIPR with an …; experiment: cell-based or functional assay
[2] = target: full-length human GLP-1R with an N-terminal FLAG tag (human, UniProt P43220 24-463); experiment: cell-based or functional assay

Binder | Human GIPR cAMP, HEK293T EC50 [1] [nM] | Human GLP1R cAMP HEK293T EC50 [2] [nM]
[NMeY][Aib]EGTFISDYSIALDR[Aib]AQ[Aib]K([AEEA-AEEA-γGlu-γGlu-C15 diacid])FVNWLLAQK-OH (N-terminus assumed; SMILES CC[C@H](C)[C@H](NC(=O)[C@H](CO)NC(=O)[C@H](Cc1ccc(O)cc1)NC(=O)[C@H](CC(=O)O)NC(=O)[C@H](CO)NC(=O)[C@@H](NC(=O)[C@H](Cc1ccccc1)NC(=O)[C@@H](NC(=O)CNC(=O)[C@H](CCC(=O)O)NC(=O)C(C)(C)NC(=O)[C@H](Cc1ccc(O)cc1)NC)[C@@H](C)O)[C@@H](C)CC)C(=O)N[C@@H](C)C(=O)N[C@@H](CC(C)C)C(=O)N[C@@H](CC(=O)O)C(=O)N[C@@H](CCCNC(=N)N)C(=O)NC(C)(C)C(=O)N[C@@H](C)C(=O)N[C@@H](CCC(N)=O)C(=O)NC(C)(C)C(=O)N[C@@H](CCCCNC(=O)COCCOCCNC(=O)COCCOCCNC(=O)CC[C@H](NC(=O)CC[C@H](NC(=O)CCCCCCCCCCCCCC(=O)O)C(=O)O)C(=O)O)C(=O)N[C@@H](Cc1ccccc1)C(=O)N[C@H](C(=O)N[C@@H](CC(N)=O)C(=O)N[C@@H](Cc1c[nH]c2ccccc12)C(=O)N[C@@H](CC(C)C)C(=O)N[C@@H](CC(C)C)C(=O)N[C@@H](C)C(=O)N[C@@H](CCC(N)=O)C(=O)N[C@@H](CCCCN)C(=O)O)C(C)C) [Compound 27] | 0.0006 | 145
[NMeY][Aib]EGTFISDYSIAK([AEEA-γGlu-γGlu-γGlu-C15 diacid])DR[Aib]AQ[Aib]NFVNWLL[Aib]QK-NH2 (N-terminus assumed; SMILES CC[C@H](C)[C@H](NC(=O)[C@H](CO)NC(=O)[C@H](Cc1ccc(O)cc1)NC(=O)[C@H](CC(=O)O)NC(=O)[C@H](CO)NC(=O)[C@@H](NC(=O)[C@H](Cc1ccccc1)NC(=O)[C@@H](NC(=O)CNC(=O)[C@H](CCC(=O)O)NC(=O)C(C)(C)NC(=O)[C@H](Cc1ccc(O)cc1)NC)[C@@H](C)O)[C@@H](C)CC)C(=O)N[C@@H](C)C(=O)N[C@@H](CCCCNC(=O)COCCOCCNC(=O)CC[C@H](NC(=O)CC[C@H](NC(=O)CC[C@H](NC(=O)CCCCCCCCCCCCCC(=O)O)C(=O)O)C(=O)O)C(=O)O)C(=O)N[C@@H](CC(=O)O)C(=O)N[C@@H](CCCNC(=N)N)C(=O)NC(C)(C)C(=O)N[C@@H](C)C(=O)N[C@@H](CCC(N)=O)C(=O)NC(C)(C)C(=O)N[C@@H](CC(N)=O)C(=O)N[C@@H](Cc1ccccc1)C(=O)N[C@H](C(=O)N[C@@H](CC(N)=O)C(=O)N[C@@H](Cc1c[nH]c2ccccc12)C(=O)N[C@@H](CC(C)C)C(=O)N[C@@H](CC(C)C)C(=O)NC(C)(C)C(=O)N[C@@H](CCC(N)=O)C(=O)N[C@@H](CCCCN)C(N)=O)C(C)C) [Compound 28] | 0.0001 | 60.3
[NMeY][Aib]EGTFISDYSIALDRK([AEEA-AEEA-γGlu-C15 diacid])HQ[Aib]NFVNWLLAQS-OH (also: Me-Tyr methyl position not given here) [Compound 37] | 0.0002 | 43.7
[NMeY][Aib]EGTFISDYSIAK([AEEA-γGlu-γGlu-γGlu-C15 diacid])DR[Aib]AQ[Aib]NFVNWLL[Aib]QK-OH (not fully specified) [Compound 38] | 0.0002 | 525
[NMeY][Aib]EGTFISDYSIALDR[Aib]AQ[Aib]K([AEEA-γGlu-γGlu-γGlu-C15 diacid])FVNWLL[Aib]QK-OH (not fully specified) [Compound 40] | 0.0008 | 115
Y[Aib]EGTFISDYSIALDR[Aib]AQ[Aib]NFVNWLLAQK([G2E3-C15 diacid]) (not fully specified (residue 1, N-terminus); also: Me-Tyr methyl position not given here) [Compound 41] | 0.0004 | 112
Me-Y[Aib]EGTFISDYSIAK([AEEA-γGlu-γGlu-γGlu-C15 diacid])DR[Aib]AQ[Aib]NFVNWLLAQK-NH2 [Compound 23] | 0.0004 | 363
YXEGTFISDYSIALDKXHQXDFVNWLLAXK (not fully specified; Me-Tyr1; Aib 2,17,20; Km29 = Lys(2OEGgE-C15DA); position 21 printed 'O' in Table 3; C-term OH) [Compound 36] | 0.001 | 25.1
[NMeY][Aib]EGTFISDYSIALDR[Aib]K([AEEA-γGlu-γGlu-γGlu-C15 diacid])Q[Aib]NFVNWLLAQK (not fully specified (N-terminus)) [Compound 44] | 0.0004 | 631
Me-Y[Aib]EGTFISDYSIALDR[Aib]AQ[Aib]K([AEEA-γGlu-γGlu-γGlu-C15 diacid])FVNWLLAQK-NH2 [Compound 24] | 0.0004 | 16.9
[NMeY][Aib]EGTFISDYSIALDR[Aib]AQ[Aib]NFVNWLLAQK([G2E3-C15 diacid])PSSGAPPPS-OH [Compound 32] | 0.0002 | 4.73
[NMeY][Aib]EGTFISDYSIAK([AEEA-γGlu-γGlu-γGlu-C15 diacid])DR[Aib]AQ[Aib]NFVNWLLA[Aib]K-OH (not fully specified) [Compound 39] | 0.0005 | 398
[NMeY][Aib]EGTFISDYSIAK([G2E3-C15 diacid])DR[Aib]AQ[Aib]NFVNWLLAQK-NH2 [Compound 30] | 0.0001 | 442
Y[Aib]EGTFISDYSIALDR[Aib]AQ[Aib]NFVNWLLAQK([AEEA-γGlu-γGlu-γGlu-C15 diacid]) (not fully specified (residue 1, N-terminus); also: Me-Tyr methyl position not given here) [Compound 43] | 0.0003 | 174
[NMeY][Aib]EGTFISDYSIAK([AEEA-AEEA-γGlu-γGlu-C15 diacid])DR[Aib]AQ[Aib]NFVNWLLAQK-OH (N-terminus assumed; SMILES CC[C@H](C)[C@H](NC(=O)[C@H](CO)NC(=O)[C@H](Cc1ccc(O)cc1)NC(=O)[C@H](CC(=O)O)NC(=O)[C@H](CO)NC(=O)[C@@H](NC(=O)[C@H](Cc1ccccc1)NC(=O)[C@@H](NC(=O)CNC(=O)[C@H](CCC(=O)O)NC(=O)C(C)(C)NC(=O)[C@H](Cc1ccc(O)cc1)NC)[C@@H](C)O)[C@@H](C)CC)C(=O)N[C@@H](C)C(=O)N[C@@H](CCCCNC(=O)COCCOCCNC(=O)COCCOCCNC(=O)CC[C@H](NC(=O)CC[C@H](NC(=O)CCCCCCCCCCCCCC(=O)O)C(=O)O)C(=O)O)C(=O)N[C@@H](CC(=O)O)C(=O)N[C@@H](CCCNC(=N)N)C(=O)NC(C)(C)C(=O)N[C@@H](C)C(=O)N[C@@H](CCC(N)=O)C(=O)NC(C)(C)C(=O)N[C@@H](CC(N)=O)C(=O)N[C@@H](Cc1ccccc1)C(=O)N[C@H](C(=O)N[C@@H](CC(N)=O)C(=O)N[C@@H](Cc1c[nH]c2ccccc12)C(=O)N[C@@H](CC(C)C)C(=O)N[C@@H](CC(C)C)C(=O)N[C@@H](C)C(=O)N[C@@H](CCC(N)=O)C(=O)N[C@@H](CCCCN)C(=O)O)C(C)C) [Compound 26] | 0.0003 | 1000
[NMeY][Aib]EGTFISDYSIALDR[Aib]K([G2E3-C15 diacid])Q[Aib]NFVNWLLAQK-OH (not fully specified (N-terminus)) [Compound 42] | 0.0006 | 237
[NMeY][Aib]EGTFISDYSIALDR[Aib]AQ[Aib]K([G2E3-C15 diacid])FVNWLLAQK-NH2 [Compound 31] | 0.0002 | 0.776
[NMeY][Aib]EGTFISDYSIALDR[Aib]AQ[Aib]NFVNWLLAK([AEEA-AEEA-γGlu-C15 diacid])K-OH (not fully specified) [Compound 34] | 0.0003 | 117

— patent US20220227830A1, “QD DOSING OF GIP RECEPTOR AGONIST PEPTIDE COMPOUNDS AND USES THEREOF” (Takeda Pharmaceutical Company Limited, priority 2020, published 2022)
